These results are taken from US20230257454A1 (STAIDSON BEIJING BIOPHARMACEUTICALS, published 2023).

T1: human C5a (source not stated) (human, UniProt P01031 678-751)
T1 sequence: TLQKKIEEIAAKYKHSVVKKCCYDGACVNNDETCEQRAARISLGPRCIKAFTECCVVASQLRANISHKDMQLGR

B1: Cab21 scFv (scFv, V domains shown)
VH: EVQLVQSGGGLVQPGGSLKVSCAASGFIFSNYYIQWVRQAPGKGPEWVGLIRNKAIGETTEFAASVKGRFTISRDDSKSIVYLQMTRLKTEDTAVYYCAGRLGPPGLTWGQGVLVTISS
VL: DAVMTQTPLSLPVTPGEPASISCRSSQSLLASDGYNYIDWYLQRPGQSPKVLIYGGSNRASGVPDRFSGSGSGTYFTLKISKVEAEDVGFYFCLQHRALPPTFGQGTKLEIK
B2: Cab01 scFv (scFv, V domains shown)
VH: EVQLVESGGGMVQPGGSLRVSCAASGFTFTKYYMQWVRQAPGKGPEWVGLIRNKANGGTAEYVASVKDRFTISRDDSKSIAYLQMSSLKTEDTAVYYCVMRDNGYHWGQGVLVTVSS
VL: DIVLTQTPLSLPVTPGEPASISCRSSQRLLHSDGYTYLDWYLQKPGQSPQLLIYGGSNRASGVPDRFSGSGSGTDFTLKISKVEAEDVGVYYCMQHKALPLTFGGGTKVEIK
B3: Cab36 (reformatted as human IgG1) (antibody, V domains shown)
VH: EMQLVESGGGLVQPGGSLRLSCAASGFTFSDYYMQWVRQAPGKGPEWVGLIRNKAVGETTEYAASVKGRFTISRDDSKNSVYLQMNSLKTEDTAVYYCVSRAGPPGLSWGQGVLVTVSS
VL: DIVMTQSPLSLPVTPGEPASISCRSSQSLLASDGYNYIDWYLQKPGQSPQLLIYGGSNRASGVPDRFSGSGSGTDFTLKISRVEAEDVGVYFCLQHRALPPTFGQGTKLEIK
B4: Cab46 (reformatted as human IgG1) (antibody, V domains shown)
VH: EVQLVESGGGLVQPGGSLRLSCAASGFTFSDYYIQWVRQAPGKGPEWVGLIRNKAVGGTTTYAASVKGRFTISRDDSKNSAYLQMNSLKTEDTAVYFCVSRAGPPGLSWGQGVLVTVSS
VL: DIVMTQSPLSLPVTPGEPASISCRSSQSLLATDGYEYLDWYLQKPGQSPQLLIYGASNRASGVPDRFSGSGSGTDFTLKISRVEAEDVGVYYCLQHKALPPTFGQGTKLEIK
B5: Cab37 (reformatted as human IgG1) (antibody, V domains shown)
VH: EMQLVESGGGLVQPGGSLRLSCAASGFTFSDYYMQWVRQAPGKGPEWVGLIRNKAVGFTTQYAASVKGRFTISRDDSKNSVYLQMNSLKTEDTAVYYCVSRAGPPGLSWGQGVLVTVSS
VL: DIVMTQSPLSLPVTPGEPASISCRSSQSLLASDGYNYIDWYLQKPGQSPQLLIYGGSNRASGVPDRFSGSGSGTDFTLKISRVEAEDVGVYFCLQHRALPPTFGQGTKLEIK
B6: Cab19 scFv (scFv, V domains shown)
VH: EVQLVESGGGLVQPGGSLKVSCVASGFTFSDYYIQWVRQAPGKGPEWVGLIRNKAVGGTTSYAASVKGRFTISRDDSKSVAYLQMTSLKTEDTAVYFCVSRAGPPGLSWGQGVLVTVSS
VL: DIVMIQNPLSLPVTPGEPASISCRSSQSLLHSDGYTYLDWYQQKPGQAPQLLIYGGSNRASGVPDRFSGSGSATDFTLKISKMEAEDVGVYYCMQHKALPPTFGGGTKVEIK
B7: Cab17 scFv (scFv, V domains shown)
VH: VVQLVESGGGLVLPGGSLKVSCAASGFIFSDYYIQWVRQAPGKGPEWVGLIRNKAVGETVQYAASLKGRFTISRDDSKSIAYLQMTSLKTEDTAMYYCVSRAGPPGLTWGQGVLVTVSS
VL: DIVMIQNPLSLSVTPGEPASISCRSSQRLLASDGYTYVDWYLQKPGQSPQILIYGGSNRASGVPDRFSGSGSGTDFTLKISKVEAEDVGVYYCMQHKALPPTFGQGTKLEIK
B8: Cab18 scFv (scFv, V domains shown)
VH: VVQLVESGGGLVQPGGSLKVSCAASGFTFSDYYMQWVRQAPGKGPEWVGLIRNKAIGETTQYAASVKGRFTISRDDSKSIVYLQMSSLKTEDTAVYYCVSRAGPPGLSWGQGVLVTVSS
VL: DIVMTQNPLSLPVTPGEPASISCRSSQSLLDSNRYAYVDWYLQKPGQSPQILVYGGSNRASGVPDRFSGSGSGTDFTLKISKVEAEDVGIYYCMQHKVLPPTFGQGTKLEIK

The first assay deals with T1, human C5a (source not stated). The assay can be described thus: cell-based or functional assay.
Turning to B1, the “ROS IC50” value was found to be 0.84 nM.
For the molecule B2, the “ROS IC50” value is 1.51 nM.

The next assay has the same target. Nature of the assay: cell-based or functional assay. The source holds these as a separate data set.
The molecule B3 came in with an ROS IC50 of 1.41 nM.
Still for that read-out and setting: as for B4, the figure is 0.66 nM.
The same measure, in the same setting: the result for B5 reads 0.92 nM; that for B6, 1.32 nM; that for B7, 1.87 nM.
With B8, the ROS IC50 worked out at 1.36 nM.
